Data reported in US20240343826A1, “Compositions and Methods for Targeting Cancer Stem Cells” (Seagen Inc., priority 2015, published 2024).

Assays:
[1] = tested on: OV90 cells; test: MTT cell viability assay, antibody and chemotherapeutic agent treatment; type: cell-based, human; details: 72 to 144 hours, S3F 0.033 nM-500 nM; for cell viability (MTT assay): STn+CD133+ OV90 and CSC sub-fractions, normalized to untreated control
Procedure: STn+CD133+OV90 and CSC sub-fractions were treated with unconjugated anti-STn antibody S3F [0.033 nM-500 nM] or with different concentrations of chemotherapeutic agents paclitaxel and/or carboplatin. OV90 cells were cultured for 72 to 144 hours with the indicated concentrations and cell viability was analyzed by MTT assay (FIG. 2). All values were normalized to the untreated control.

[2] = tested on: STn in ovarian cancer tissue; test: Immunohistochemical staining of ovarian cancer tissue sections; type: binding; details: S3F as primary antibody; peroxidase-based secondary detection; compared to normal IgG and no primary antibody
Source text: Tissue sections from ovarian cancer tissue were subjected to immunohistochemical staining to identify cells expressing STn using S3F antibody as a primary antibody. Bound antibody was detected using a peroxidase-based secondary detection system.

[3] = tested on: CSC tumors; test: Anti-CSC activity in vivo, tumors in NOD/SCID mice
Procedure: The growth conditions of CSC subfractions in NOD/SCID mice is established and analyzed. Anti-STn antibodies are administered to mice as conjugates with chemotherapy and treated mice are tested for toxicity and efficacy through mouse observations and weights.
An equivalent amount of serially-diluted positive or negative subfraction cells (i.e., 1×10^5, 1×10^4, and 1×10^3/mouse; 2-8 mice/group) are injected subcutaneously (s.c.) into NOD/SCID mice, to compare their potential to generate tumors. Following injection of tumor cells, the mice are monitored daily for evidence of tumor formation and general health.
For treatment, tumors may be generated in mice from up to four sources: 1) primary ovarian tumors; 2) xenograft tumors previously established in NOD/SCID mice; 3) cryopreserved xenograft tumor tissue; or 4) human ovarian cancer cell lines or isolated cell line subfractions based on CD133/STn expression. For each tumor type, once a sufficient number of mice have tumors ranging from 200-300 mm^3 in volume, the mice are randomized into 4 groups (n=8-14 mice/group) such that the mean group tumor volumes are essentially equivalent. […]
Tumors are then measured twice weekly with calipers [tumor volume=(Lmm×Wmm×[…])/2]. […]

N.N.O=C([O-])C1(C(=O)[O-])CCC1.[Pt+2] [carboplatin, reference compound]
cell viability (MTT assay) [1]: Cell viability was reduced

CC(=O)O[C@H]1C(=O)[C@@]2(C)[C@H]([C@H](OC(=O)c3ccccc3)[C@]3(O)C[C@H](OC(=O)[C@H](O)[C@@H](NC(=O)c4ccccc4)c4ccccc4)C(C)=C1C3(C)C)[C@]1(OC(C)=O)CO[C@@H]1C[C@@H]2O [paclitaxel, reference compound]
cell viability (MTT assay) [1]: Cell viability was reduced

B1: S3F: anti-STn IgG2a antibody combining 3F1 variable domains with IgG2a constant domains; heavy chain SEQ ID NO: 5, light chain SEQ ID NO: 6 (antibody)
heavy: QVQLQQSDAELVKPGASVKISCKASGYTFTDHAIHWVKQKPEQGLDWIGYISPGNGDIKYNEKFKDKVTLTADKSSSTACMHLNSLTSEDSAVYFCKRSLLALDYWGQGTTLTVSSAKTTAPSVYPLAPVCGDTTGSSVTLGCLVKGYFPEPVTLTWNSGSLSSGVHTFPAVLQSDLYTLSSSVTVTSSTWPSQSITCNVAHPASSTKVDKKIEPRGPTIKPCPPCKCPAPNLLGGPSVFIFPPKIKDVLMISLSPIVTCVVVDVSEDDPDVQISWFVNNVEVHTAQTQTHREDYNSTLRVVSALPIQHQDWMSGKEFKCKVNNKDLPAPIERTISKPKGSVRAPQVYVLPPPEEEMTKKQVTLTCMVTDFMPEDIYVEWTNNGKTELNYKNTEPVLDSDGSYFMYSKLRVEKKNWVERNSYSCSVVHEGLHNHHTTKSFSRTPGK
light: DIVMTQSHKFMSTSVGDRVSITCKASQDVGTNIAWYQQKPGRSPKVLIYSASTRHTGVPDRFTGSGSGTDFTLTISNVQSEDLTDYFCQQYSSFPLTFGVGTKLELKRADAAPTVSIFPPSSEQLTSGGASVVCFLNNFYPKDINVKWKIDGSERQNGVLNSWTDQDSKDSTYSMSSTLTLTKDEYERHNSYTCEATHKTSTSPIVKSFNRNEC
immunohistochemical staining [2]: Numerous cells showed positive staining
efficacy in combination with standard chemotherapy agents used for ovarian cancer [3]: increases the efficacy of the antibody
growth of CSC tumors ([3]; i.p. once weekly): capable of delaying the growth of or eradicating CSC tumors
dose dependence of effect on cell viability ([1]; OV90 cells): most effective at higher doses tested
cell viability (MTT assay) [1]: Cell viability was reduced
